Data on one molecule can be found in patent US20220119534A1 (DRAGONFLY THERAPEUTICS, published 2022).

Several values for one entry are separate records, joined by “and”; a condition that tells them apart may be missing. Equal entries are not always repeated.

For test [1], the target named is T1, Cynomolgus CD16 (FcγRIII) (cynomolgus monkey, UniProt Q8SPW2 17-208, biotinylated).
T1 construct: Bought recombinant receptor; also called cFcγRIII; Cyno FcγRIII
Description: SPR, summary of FcγR affinities (n = 3).

Test [2] concerns the target T2, Cynomolgus CD64 (FcγRI) (cynomolgus monkey, UniProt A0A2K5U901 33-309, Biotinylated and captured on the CAP chip (p-1094); the biotin site is not stated.).
T2 construct: Bought recombinant receptor; also called cFcγRI; Cynomolgus FcγRI; not shown: The vendor's biotinylation and purification tag (ACRO FCA-C82E8)
Description: SPR, summary of FcγR affinities (n = 3).

Test [3] concerns the target T3, Human CD16b (FcγRIIIb) (human, UniProt O75015 17-200, limits assumed, biotinylated).
T3 construct: Bought recombinant receptor; also called hFcγRIIIb; CD16b (FcγR3b)
Description: SPR, summary of FcγR affinities (n = 3).

For test [4], the target named is T4, Human CLEC12A expressed on cells (Ba/F3-hCLEC12A, PL21, HL60) (human, UniProt Q5QGZ9 1-265).
T4 sequence: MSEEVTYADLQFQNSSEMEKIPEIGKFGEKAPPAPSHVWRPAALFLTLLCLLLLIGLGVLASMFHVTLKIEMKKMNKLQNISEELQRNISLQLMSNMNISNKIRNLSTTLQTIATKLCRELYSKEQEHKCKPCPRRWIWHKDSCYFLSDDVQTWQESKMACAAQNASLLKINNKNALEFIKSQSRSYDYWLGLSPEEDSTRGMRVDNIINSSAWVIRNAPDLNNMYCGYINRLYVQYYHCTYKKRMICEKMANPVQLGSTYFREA
In words: cell-based or functional assay.

The target of test [5] is T5, Human CD32b (FcγRIIb) (human, UniProt P31994 46-217, limits assumed, biotinylated).
T5 construct: Bought recombinant receptor; also called hFcγRIIb; CD32b (FcγR2b)
T5 sequence (looked up): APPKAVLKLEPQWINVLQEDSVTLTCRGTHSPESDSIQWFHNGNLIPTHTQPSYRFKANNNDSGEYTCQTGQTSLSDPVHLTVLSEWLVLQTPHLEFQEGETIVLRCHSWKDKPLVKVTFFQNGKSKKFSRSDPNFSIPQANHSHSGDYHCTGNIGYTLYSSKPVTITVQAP
Description: SPR 25C, biotinylated CD32b captured.

Test [6] addresses T6, Human CLEC12A-His (recombinant, K244 WT) (human, UniProt Q5QGZ9 65-265).
T6 construct: Made in house (Dragonfly Tx); also called hCLEC12A; hCLEC12A-His; not shown: His tag
T6 sequence: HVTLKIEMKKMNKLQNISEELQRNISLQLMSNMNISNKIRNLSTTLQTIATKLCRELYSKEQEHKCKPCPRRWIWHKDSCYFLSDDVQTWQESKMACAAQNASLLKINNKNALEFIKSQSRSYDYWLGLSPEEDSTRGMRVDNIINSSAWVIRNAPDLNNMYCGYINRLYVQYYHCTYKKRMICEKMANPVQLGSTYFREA
Description: SPR, two-state fit (ka1); after forced oxidation.

The target of test [7] is T7, mFc-hNKG2D (recombinant mFc-tagged human NKG2D dimer) (human, UniProt P26718 73-216).
T7 construct: extracellular domain; Made in house; not shown: mouse Fc tag
T7 sequence (looked up): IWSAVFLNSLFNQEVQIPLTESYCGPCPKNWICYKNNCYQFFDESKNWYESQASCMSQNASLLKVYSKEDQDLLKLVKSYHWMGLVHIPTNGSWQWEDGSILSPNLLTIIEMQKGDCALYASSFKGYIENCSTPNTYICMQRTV
Description: SPR; control sample.

The target of test [8] is T8, Human CD16a V158 (FcγRIIIa V158) (human, UniProt P08637 17-208, biotinylated).
T8 construct: Bought recombinant receptor; also called hCD16aV; hFcγRIIIa V158
T8 sequence (P08637 17-208 F176V limits assumed): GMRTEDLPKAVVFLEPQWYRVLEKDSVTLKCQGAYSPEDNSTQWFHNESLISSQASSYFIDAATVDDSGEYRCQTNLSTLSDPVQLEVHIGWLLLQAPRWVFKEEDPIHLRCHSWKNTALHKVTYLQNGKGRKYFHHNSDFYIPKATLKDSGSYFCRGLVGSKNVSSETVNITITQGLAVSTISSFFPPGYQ
In words: SPR; control sample.

T2 sequence (A0A2K5U901 entry or part of it limits assumed): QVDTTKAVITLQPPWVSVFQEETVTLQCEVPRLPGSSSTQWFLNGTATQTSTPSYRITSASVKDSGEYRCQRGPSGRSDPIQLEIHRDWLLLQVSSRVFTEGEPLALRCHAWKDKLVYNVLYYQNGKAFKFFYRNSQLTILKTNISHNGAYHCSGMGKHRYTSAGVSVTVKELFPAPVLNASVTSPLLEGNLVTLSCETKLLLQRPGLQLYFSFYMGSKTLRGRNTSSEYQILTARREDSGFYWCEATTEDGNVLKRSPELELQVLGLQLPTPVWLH
T3 sequence (O75015 17-200 limits assumed): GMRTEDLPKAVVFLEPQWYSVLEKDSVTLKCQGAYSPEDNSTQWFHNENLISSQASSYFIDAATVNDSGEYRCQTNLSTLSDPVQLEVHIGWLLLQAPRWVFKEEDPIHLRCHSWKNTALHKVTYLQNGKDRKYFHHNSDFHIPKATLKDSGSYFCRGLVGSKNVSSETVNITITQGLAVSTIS
T1 sequence (Q8SPW2 17-208 limits assumed): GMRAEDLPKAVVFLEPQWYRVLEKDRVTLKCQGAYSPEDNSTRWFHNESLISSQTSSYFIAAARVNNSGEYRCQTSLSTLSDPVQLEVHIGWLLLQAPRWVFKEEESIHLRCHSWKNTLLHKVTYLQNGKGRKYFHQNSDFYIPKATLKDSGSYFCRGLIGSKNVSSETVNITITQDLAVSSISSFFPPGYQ

B1: AB0089 TriNKET (bispecific antibody, human IgG1, kappa)
chain: QLQLQESGPGLVKPSETLSLTCTVSGFSLTNYGLHWIRQPPGKCLEWIGVIWVGGATDYNPSLKSRVTISVDTSKNQFSLKLSSVQAADTAVYYCAKGDYGDTLDYWGQGTLVTVSSGGGGSGGGGSGGGGSGGGGSDIQMTQSPSSLSASVGDRVTITCHASQNINFWLSWYQQKPGKAPKLLIYEASNLHTGVPSRFSGSGSGTDFTLTISSLQPEDFATYYCQQSHSYPLTFGCGTKLEIKGSDKTHTCPPCPAPELLGGPSVFLFPPKPKDTLMISRTPEVTCVVVDVSHEDPEVKFNWYVDGVEVHNAKTKPREEQYNSTYRVVSVLTVLHQDWLNGKEYKCKVSNKALPAPIEKTISKAKGQPREPRVYTLPPCRDELTKNQVSLTCLVKGFYPSDIAVEWESNGQPENNYKTTPPVLVSDGSFTLYSKLTVDKSRWQQGNVFSCSVMHEALHNHYTQKSLSLSPG
heavy: EVQLVESGGGLVKPGGSLRLSCAASGFTFSSYSMNWVRQAPGKGLEWVSSISSSSSYIYYADSVKGRFTISRDNAKNSLYLQMNSLRAEDTAVYYCARGAPIGAAAGWFDPWGQGTLVTVSSASTKGPSVFPLAPSSKSTSGGTAALGCLVKDYFPEPVTVSWNSGALTSGVHTFPAVLQSSGLYSLSSVVTVPSSSLGTQTYICNVNHKPSNTKVDKKVEPKSCDKTHTCPPCPAPELLGGPSVFLFPPKPKDTLMISRTPEVTCVVVDVSHEDPEVKFNWYVDGVEVHNAKTKPREEQYNSTYRVVSVLTVLHQDWLNGKEYKCKVSNKALPAPIEKTISKAKGQPREPQVCTLPPSRDELTENQVSLTCLVKGFYPSDIAVEWESNGQPENNYKTTPPVLDSDGSFFLYSWLTVDKSRWQQGNVFSCSVMHEALHNHYTQKSLSLSPG
light: DIQMTQSPSSVSASVGDRVTITCRASQGISSWLAWYQQKPGKAPKLLIYAASSLQSGVPSRFSGSGSGTDFTLTISSLQPEDFATYYCQQGVSFPRTFGGGTKVEIKRTVAAPSVFIFPPSDEQLKSGTASVVCLLNNFYPREAKVQWKVDNALQSGNSQESVTEQDSKDSTYSLSSTLTLSKADYEKHKVYACEVTHQGLSSPVTKSFNRGEC
notes: F3' format heterodimer of three chains; human IgG1 Fc with EW-RVT and Y349C/S354C mutations; also called AB0089 Lot AB0089-002; CLEC12A TriNKET AB0089
Take B1: the Kd in test [1] is 349 nM; in test [2], 1.5 nM; in test [3], 8850 nM; in test [5], 7100 nM and 5300 nM and 7400 nM; in test [7] it was 797 nM; in test [8], 322 nM. In addition, in test [4], the “EC50, KHYG1-CD16aV cytotoxicity assay; after 4 wks 40C in CST pH 7.0” value was found to be 0.16 nM. In test [4], the “EC50, KHYG1-CD16aV cytotoxicity assay; control sample” value was 0.13 nM. The figures for the kon in test [6], in test [7] and in test [8] were 9.93e+06 M⁻¹ s⁻¹, 169000 M⁻¹ s⁻¹ and 86400 M⁻¹ s⁻¹, respectively. Besides, the values for the off-rate (koff) in test [7] and in test [8] were 0.135 s⁻¹ and 0.0278 s⁻¹, respectively.
